Assay results taken from the nanobody polyreactivity screen of Harvey et al. (2022).

Assay: yeast display, Sf9 membrane polyspecificity reagent, FACS + sequencing; frameworks hold sequencing errors
Outline: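 Genes from sorted yeast were amplified by colony PCR, read by MiSeq 2 × 250 sequencing and filtered on CDR length. These cells carried a synthetic nanobody library in Saccharomyces cerevisiae BJ5465 and were sorted by FACS into low and high (top ~1%) gates on anti-HA and streptavidin fluorescence. Polyreactivity is labelled according to the gate of origin.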

Sequence | polyreactivity (PSR sort gate)
QVQLVESGGGLVQAGGSLRLSCAASGFTFGPNTMGWYRPAPGKERELVAAISARGGRTYYADSVKGRFTISRDNAKNTVYLQMNSLKPEDTAVYYCAAPGYVRTGVTYGGYYWGQGTQVTVSS | high polyreactivity
QVQLVESGGGLVQAGGSLRLSCAASGFTFGQYAMGWYRQAPVKERELVAAITGSGGRTYYADSVKGRITISRDTAKNTVYLQMNSLKPEDTGVYYCNARVPLRQYSNYYWGQGTQVTVSS | high polyreactivity
QVQLVESGGGLVQAGGSLRLSCAASGFTFGRNAMGWYRQAHGKERELVASIDWSGGSTYYADSVKGRFTISRDNAKNTFYLQMNTLKPEDTAVYYCAVGPNSVGNRSYGFDYWGQGTQVTLSS | low polyreactivity
QVQLVESGGGLVQAGGSLRLSCAASGFTFGRYAMGWYRPAPGKERELVAAISRSGGRTYYADTVKGRFTISRDNAKNTVYLQMNSLKPEHTAVYYCAAYGGVEDDYWGQGTQVTVSS | low polyreactivity
QVQLVESGGGLVQAGGSLRLSCAASGFTFGRYAMGWYRQAPGKERELVAAITSRGGSTYYADSVKGRFTISRDNAKNTVYLQMNSLKPEDTAVYYCNRDLVDSYGYWGQGTQVTVSS | high polyreactivity
QVQLVESGGGLVQAGGSLRLSCAASGFTFGSNTMGWYRQAPGKERELVAAITTSGDSTYYADSVKGRFTISRDNAKNTVYLQMNCLKPEDTAVYYCAAERRYGRYYRLVRLLGQGTQVTVSS | high polyreactivity
QVQLVESGGGLVQAGGSLRLSCAASGFTFGSYVMGWYRQAPGKERELVADISIRGGSTYYADSVKGRFTISRDNAKNTVYLQMHSLKPEDTAVYDCNADPAFYYWEGIVGGADYDYWGQGTQVTVSS | low polyreactivity
QVQLVESGGGLVQAGGSLRLSCAASGFTFGTYTMGWYRQAPGKERELVAAISGSGGSTYYADSVKGRFTISRDNAKNTDYLQMNSLKPEDTAVYYCAAVGRSKRDGYWGQGTQVTVST | high polyreactivity
QVQLVESGGGLVQAGGSLRLSCAASGFTFGWYAMGWYRPAPGKERELVAAISRSGGSTYYADSVKGRFTISRDTAKNTVYLQMNSLKPEDTAVYYCAATYPQGKYTYGRSYDYWGQGTQVTVSS | high polyreactivity
QVQLVESGGGLVQAGGSLRLSCAASGFTFGWYAMGWYRQAPGKEREFVAAISQTGGSTYYADSVKGRFTISRDNAKNTVYLQMNSLKPEDTAVYYCAAPGKRRGVYYWGQGTQVTVSS | high polyreactivity
QVQLVESGGGLVQAGGSLRLSCAASGFTFGWYAMGWYRQAPGKERELVAAIRSDGSTYYADSVKGRFTISRDNAKNTVYLQMNSLKPEDTAVDYCAAVYYQRGWEFDYWGQGTQVTVSS | low polyreactivity
QVQLVESGGGLVQAGGSLRLSCAASGFTFGWYAMGWYRQAPGKERELVADITYNDASTYYADSVKGRFTISRDNAKNTVYLQMNSLKPEDTAVYYCNAVHRRYLVTHPYDYWGQGTQVTVSS | low polyreactivity
QVQLVESGGGLVQAGGSLRLSCAASGFTFGYNAMGRYRQAPGKERELVAAITSGGSTNYADSVKGRFTISRDNAKNTVYLQMNSLKPEDNAVYYCATGVRPWRKKPVEFYHWGQGTQVTVSS | low polyreactivity
QVQLVESGGGLVQAGGSLRLSCAASGFTFGYNDMGWYRQAPGKERELVAGIRSGDDTNYADSVKGRFTISRDNAKNTVYLQMYSLKPEDTAVYYCAADRTTYTYYLPYDYWGQGTQVTVSS | low polyreactivity
QVQLVESGGGLVQAGGSLRLSCAASGFTFGYYAMGWSRQAPGKESELLATITSSGASTYADSVKGRFTISRDNAKNTVYLQMNSLKPEDTAVYYCAADRLPSYWSWYGYDYWGQGTQVTVSS | high polyreactivity
QVQLVESGGGLVQAGGSLRLSCAASGFTFGYYAMGWYRPAPGKERELVAGISSSGSRTYYADSVKGRFTISRDNAKNTVYLQMNSLKPEDTAVYYCNKYYSGKSYTGEDYWGQGTQVTVSS | high polyreactivity
QVQLVESGGGLVQAGGSLRLSCAASGFTFGYYAMGWYRQAPGKERELVAAISASGASTYYADSVKGRFTISRDNAKNTVYLQMNSLKPEDTAVYYCAARPGQLTSPVTRTRYNYWGQGTQVTVSS | low polyreactivity
